Test results taken from paper PMC3012607, “From an electrophoretic mobility shift assay to isolated transcription factors: a fast genomic-proteomic approach”.

T1: 2488prp (Xpp1 candidate) (Hypocrea jecorina (Trichoderma reesei), UniProt G0RQ24 1-492)
T1 sequence: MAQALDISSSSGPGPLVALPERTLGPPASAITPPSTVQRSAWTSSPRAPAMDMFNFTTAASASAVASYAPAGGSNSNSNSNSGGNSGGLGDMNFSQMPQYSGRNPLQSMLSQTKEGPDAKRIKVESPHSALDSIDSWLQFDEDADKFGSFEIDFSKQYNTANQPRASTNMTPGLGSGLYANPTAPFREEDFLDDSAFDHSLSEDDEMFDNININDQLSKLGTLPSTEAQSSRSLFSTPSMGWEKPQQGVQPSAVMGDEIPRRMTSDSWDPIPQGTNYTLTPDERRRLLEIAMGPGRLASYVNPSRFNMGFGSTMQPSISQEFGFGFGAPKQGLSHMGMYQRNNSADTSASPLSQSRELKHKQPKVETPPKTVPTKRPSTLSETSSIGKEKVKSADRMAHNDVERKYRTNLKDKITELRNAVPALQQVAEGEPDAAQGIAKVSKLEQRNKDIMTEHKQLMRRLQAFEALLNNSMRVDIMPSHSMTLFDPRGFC

T2: 2488prp DBD (Xpp1 candidate) (Hypocrea jecorina (Trichoderma reesei), UniProt G0RQ24 395-492)
T2 sequence: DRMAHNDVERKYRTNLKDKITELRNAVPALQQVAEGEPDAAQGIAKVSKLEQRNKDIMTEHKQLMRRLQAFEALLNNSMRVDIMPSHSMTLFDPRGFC


Columns and labels:
2488prp (Xpp1 candidate) = biological target: T1, 2488prp (Xpp1 candidate); test: EMSA; EMSA: 100 ng DBD or 60 ng IVT protein with 15 ng FAM probe, 15 min on ice, binding buffer per cited ref [41]; pull-down binding mix: 200 mM KCl, 200 ng/uL poly(dIdC), 200 ng/uL CKT067/CKT068, 8 mM spermidine, on ice; settings: protein: ivt; chain copies: 2; label: 5'-FAM on strand 1; blunt
[1] = biological target: T2, 2488prp DBD (Xpp1 candidate); test: as above; settings: protein: recombinant; tags: GST removed by thrombin; chain copies: 2; label: 5'-FAM on strand 1; blunt

Binder | binding result (2488prp (Xpp1 candidate)) | binding result [1]
Lpxyn2 (dsDNA) DNA 1: TGATGAAAGGAGAACAACTTCTAGACTGGGTAAATTGGTCAATGGCCAGCCGCTC DNA 2: GAGCGGCTGGCCATTGACCAATTTACCCAGTCTAGAAGTTGTTCTCCTTTCATCA | binds | binds
Lpxyn2 M (dsDNA) DNA 1: TGATGAAAGGAGAACAACGGAGAGACTGGGTAAATTGGTCAATGGCCAGCCGCTC DNA 2: GAGCGGCTGGCCATTGACCAATTTACCCAGTCTCTCCGTTGTTCTCCTTTCATCA | no binding | no binding
